# In patent publication US20210046191A1:
# Like-named read-outs stand apart in the source and are kept apart here.
# Tests used:
# [1] = target: C5a receptor C5aR (CD88) on human blood neutrophils (human) (UniProt P21730); test: cell-based or functional assay
# [2] = target: C5a receptor C5aR (CD88) on human blood neutrophils (human) (UniProt P21730); test: cell-based or functional assay; remark: listed apart in the source
# [3] = target: recombinant human C5a (rhC5a) (human) (UniProt P01031)
# Sequence of recombinant human C5a (rhC5a) (human) (P01031 678-751 limits assumed): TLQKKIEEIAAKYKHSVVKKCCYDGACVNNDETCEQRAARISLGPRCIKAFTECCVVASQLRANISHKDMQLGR
# Sequence of C5a receptor C5aR (CD88) on human blood neutrophils (human) (P21730 whole entry): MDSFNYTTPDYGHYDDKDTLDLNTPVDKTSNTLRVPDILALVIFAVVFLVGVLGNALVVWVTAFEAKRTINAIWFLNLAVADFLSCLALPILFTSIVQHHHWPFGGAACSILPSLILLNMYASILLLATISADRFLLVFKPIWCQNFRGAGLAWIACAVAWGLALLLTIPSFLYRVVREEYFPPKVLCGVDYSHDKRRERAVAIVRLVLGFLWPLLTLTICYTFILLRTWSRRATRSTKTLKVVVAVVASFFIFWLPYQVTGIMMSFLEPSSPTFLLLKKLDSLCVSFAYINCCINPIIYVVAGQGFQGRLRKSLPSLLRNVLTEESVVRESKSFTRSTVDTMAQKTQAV
substance,measurement,setting,value
PMX-53 (peptide),Blocking activity (%) on CD11b upregulation; Pat. 088 | PMX 53 (20 µM),[1],104%
same,Blocking activity (%) on CD11b upregulation; Pat. 092 | PMX 53 (20 µM),[1],109%
same,Blocking activity (%) on CD11b upregulation; huPP | rhC5a | PMX 53 (20 µM),[1],108%
same,CD11b (mean MFI) on neutrophils; Pat. 088 | PMX 53 (20 µM),[1],2030 MFI
same,CD11b (mean MFI) on neutrophils; Pat. 092 | PMX 53 (20 µM),[1],1910 MFI
same,CD11b (mean MFI) on neutrophils; huPP | rhC5a | PMX 53 (20 µM),[1],1850 MFI
same,Blocking activity (%) on CD11b upregulation; Pat. 088 | PMX 53 (50 nM),[2],55.5%
same,Blocking activity (%) on CD11b upregulation; Pat. 092 | PMX 53 (50 nM),[2],56.7%
same,Blocking activity (%) on CD11b upregulation; huPP | rhC5a | PMX 53 (50 nM),[2],50.3%
same,CD11b (mean MFI) on neutrophils; Pat. 088 | PMX 53 (50 nM),[2],4730 MFI
same,CD11b (mean MFI) on neutrophils; Pat. 092 | PMX 53 (50 nM),[2],4660 MFI
same,CD11b (mean MFI) on neutrophils; huPP | rhC5a | PMX 53 (50 nM),[2],4240 MFI
anti-C5aR (CD88) antibody Clone 7H110,Blocking activity (%) on CD11b upregulation; Pat. 088 | Clone 7H110 (50 nM),[2],75.7%
same,Blocking activity (%) on CD11b upregulation; Pat. 092 | Clone 7H110 (50 nM),[2],78.7%
same,Blocking activity (%) on CD11b upregulation; huPP | rhC5a | Clone 7H110 (50 nM),[2],70.7%
same,CD11b (mean MFI) on neutrophils; Pat. 088 | Clone 7H110 (50 nM),[2],3560 MFI
same,CD11b (mean MFI) on neutrophils; Pat. 092 | Clone 7H110 (50 nM),[2],3390 MFI
same,CD11b (mean MFI) on neutrophils; huPP | rhC5a | Clone 7H110 (50 nM),[2],3380 MFI
anti-C5aR (CD88) antibody Clone S5/1,Blocking activity (%) on CD11b upregulation; Pat. 088 | Clone S5/1 (50 nM),[2],72.7%
same,Blocking activity (%) on CD11b upregulation; Pat. 092 | Clone S5/1 (50 nM),[2],75.9%
same,Blocking activity (%) on CD11b upregulation; huPP | rhC5a | Clone S5/1 (50 nM),[2],73%
same,CD11b (mean MFI) on neutrophils; Pat. 088 | Clone S5/1 (50 nM),[2],3740 MFI
same,CD11b (mean MFI) on neutrophils; Pat. 092 | Clone S5/1 (50 nM),[2],3560 MFI
same,CD11b (mean MFI) on neutrophils; huPP | rhC5a | Clone S5/1 (50 nM),[2],3290 MFI
irrelevant human IgG4 antibody,"blocking activity (%) of rhC5a-induced CD11b upregulation on neutrophils, human whole blood, flow cytometry; bar 'IgG4 control : rhC5a = 1:1' against rhC5a (16.7 nM) alone",[3],7%
recombinant human C5a (rhC5a) (from UniProt P01031 678-751) (ligand),CD11b (mean MFI) on neutrophils; huPP | rhC5a (20 nM),[1],8330 MFI
same,CD11b (mean MFI) on neutrophils; huPP | rhC5a (20 nM),[2],6330 MFI
